According to patent US20260151494A1 (ARO BIOTHERAPEUTICS, published 2026):
Positions count from the first letter of the chain named.

B1: CD71-binding FN3 domain of SEQ ID NO: 100 (designed binder)
chain: MLPAPKNLVVSRVTEDSARLSWTAPDAAFDSFYIAYAEPRPDGEAILLLVPGSERSYDLTGLKPGTEYSVLIHGVKGGLLSSPLVASFTT
notes: Screen 1 hit, tested from colonies in the primary ELISA; not shown: C-terminal poly-histidine tag added to each FN3 domain
B2: CD71-binding FN3 domain of SEQ ID NO: 106 (designed binder)
chain: B1 chain with A28V, L47G, L49Y, V85T
notes: as for B1
B3: CD71-binding FN3 domain of SEQ ID NO: 116 (designed binder)
chain: B1 chain with V85I, S87G
notes: as for B1
B4: CD71-binding FN3 domain of SEQ ID NO: 118 (designed binder)
chain: B1 chain with L47T, L49W, L71T, V85S, S87I
notes: as for B1
B5: CD71-binding FN3 domain of SEQ ID NO: 103 (designed binder)
chain: B1 chain with L47I, L49G, V85S, S87Y, F88S
notes: as for B1
B6: CD71-binding FN3 domain of SEQ ID NO: 108 (designed binder)
chain: B1 chain with L49Q, S87K
notes: as for B1
B7: CD71-binding FN3 domain of SEQ ID NO: 225 (designed binder)
chain: MSLPAPKNLVVSRVTEDSARLSWTAPDAAFDSFEIGYFENLYLGEAIVLTVPGSERSYDLTGLKPGTEYWVQIGGVKGGNWSAPLSAIFTT
B8: CD71-binding FN3 domain of SEQ ID NO: 223 (designed binder)
chain: B7 chain with G36A, N40R, L41T, Y42W, L43F, Q72A, N80L, A83L, A87V
B9: CD71-binding FN3 domain of SEQ ID NO: 220 (designed binder)
chain: B7 chain with G36A, F38W, N40Q, L41S, L43T
B10: CD71-binding FN3 domain of SEQ ID NO: 234 conjugated to KRAS2 siRNA (designed binder)
chain: MSLPAPKNLVVSRVTEDSARLSWTAPDAAFDSFFIGYLEPQPPGEAIALYVPGSERSYDLTGLKPGTEYNVTIQGVKGGFPSEPLVAHFTT
modifications: conjugated to KRAS2 tool siRNA; site and linker not stated
B11: CD71-binding FN3 domain of SEQ ID NO: 973 conjugated to KRAS2 siRNA (designed binder)
chain: B10 chain with A48H, V71G, G78V, V86I, H88N
modifications: conjugated to KRAS2 tool siRNA; site and linker not stated
B12: CD71-binding FN3 domain of SEQ ID NO: 281 conjugated to KRAS2 siRNA (designed binder)
chain: B10 chain with V86I, H88N
modifications: conjugated to KRAS2 tool siRNA; site and linker not stated
B13: CD71-binding FN3 domain of SEQ ID NO: 293 conjugated to KRAS2 siRNA (designed binder)
chain: B10 chain with A48D, E83H, H88T
modifications: conjugated to KRAS2 tool siRNA; site and linker not stated
B14: CD71-binding FN3 domain of SEQ ID NO: 295 conjugated to KRAS2 siRNA (designed binder)
chain: B10 chain with A48D, H88T
modifications: conjugated to KRAS2 tool siRNA; site and linker not stated
B15: CD71-binding FN3 domain of SEQ ID NO: 264 conjugated to KRAS2 siRNA (designed binder)
chain: B10 chain with A87V
modifications: conjugated to KRAS2 tool siRNA; site and linker not stated
B16: CD71-binding FN3 domain of SEQ ID NO: 974 conjugated to KRAS2 siRNA (designed binder)
chain: B10 chain with E83L, H88T
modifications: conjugated to KRAS2 tool siRNA; site and linker not stated
B17: CD71-binding FN3 domain of SEQ ID NO: 972 conjugated to KRAS2 siRNA (designed binder)
chain: B10 chain with V76A, A87V
modifications: conjugated to KRAS2 tool siRNA; site and linker not stated
B18: CD71-binding FN3 domain of SEQ ID NO: 335 conjugated to KRAS2 siRNA (designed binder)
chain: B10 chain with A48D, E83L, H88T
modifications: conjugated to KRAS2 tool siRNA; site and linker not stated
B19: CD71-binding FN3 domain of SEQ ID NO: 343 conjugated to KRAS2 siRNA (designed binder)
chain: B10 chain with Y50W, H88T
modifications: conjugated to KRAS2 tool siRNA; site and linker not stated
B20: CD71-binding FN3 domain of SEQ ID NO: 333 conjugated to KRAS2 siRNA (designed binder)
chain: B10 chain with K7E, E83L, H88T
modifications: conjugated to KRAS2 tool siRNA; site and linker not stated
B21: CD71-binding FN3 domain of SEQ ID NO: 290 conjugated to KRAS2 siRNA (designed binder)
chain: B10 chain with A48H, H88T
modifications: conjugated to KRAS2 tool siRNA; site and linker not stated
B22: CD71-binding FN3 domain of SEQ ID NO: 270 conjugated to KRAS2 siRNA (designed binder)
chain: B10 chain with A48H, V86I, H88N, F89S
modifications: conjugated to KRAS2 tool siRNA; site and linker not stated
B23: CD71-binding FN3 domain of SEQ ID NO: 341 conjugated to KRAS2 siRNA (designed binder)
chain: B10 chain with A48E, E83L, H88I
modifications: conjugated to KRAS2 tool siRNA; site and linker not stated
B24: CD71-binding FN3 domain of SEQ ID NO: 331 conjugated to KRAS2 siRNA (designed binder)
chain: B10 chain with A48H, G78V, V86I, H88N
modifications: conjugated to KRAS2 tool siRNA; site and linker not stated
B25: CD71-binding FN3 domain of SEQ ID NO: 113 (designed binder)
chain: MLPAPKNLVVSRVTEDSARLSWTAPDAAFDSFFIGYLEPQPPGEAIYLLVPGSERSYDLTGLKPGTEYNVTIQGVKGGFPSDPLSAIFTT
notes: as for B1
B26: CD71-binding FN3 domain of SEQ ID NO: 117 (designed binder)
chain: B25 chain with Y47W, D82T
notes: as for B1
B27: CD71-binding FN3 domain of SEQ ID NO: 115 (designed binder)
chain: B25 chain with Y47D, L49Y, T66I, D82L, S85Q, I87H
notes: as for B1
B28: CD71-binding FN3 domain of SEQ ID NO: 219 (designed binder)
chain: MSLPAPKNLVVSRVTEDSARLSWTAPDAAFDSFAIMYGERGNPGEAIVLTVPGSERSYDLTGLKPGTEYAVWIYGVKGGNYSYPLSAIFTT
notes: the tag is not included in the chain
B29: CD71-binding FN3 domain of SEQ ID NO: 101 (designed binder)
chain: MLPAPKNLVVSRVTEDSARLSWTAPDAAFDSFGIGYWERRWYGEAIVLTVPGSERSYDLTGLKPGTEYEVTIRGVKGGGYSGPLSAIFTT
notes: as for B1
B30: CD71-binding FN3 domain of SEQ ID NO: 105 (designed binder)
chain: MLPAPKNLVVSRVTEDSARLSWTAPDAAFDSFHIVYHEPRPSGEAIWLWVPGSERSYDLTGLKPGTEYEVGIVSVKGGDLSVPLSAIFTT
notes: as for B1
B31: CD71-binding FN3 domain of SEQ ID NO: 110 (designed binder)
chain: B30 chain with W47Y, W49E, S85R, I87H
notes: as for B1
B32: CD71-binding FN3 domain of SEQ ID NO: 114 (designed binder)
chain: B30 chain with W49F
notes: as for B1
B33: CD71-binding FN3 domain of SEQ ID NO: 102 (designed binder)
chain: MLPAPKNLVVSRVTEDSARLSWTAPDAAFDSFDIGYTEYGGYGEAIILQVPGSERSYDLTGLKPGTEYWVLIQGVKGGGSSVPLVAYFTT
notes: as for B1

How the values were obtained:
[1] = target: T1, apical domain of human CD71 (human, UniProt P02786 189-383, limits assumed); assay: primary ELISA; signal on apical domain over signal on HSA
T1 construct: domain: apical domain; the panning antigen was 30% biotinylated; also called human apical domain of CD71

[2] = target: T2, human CD71 extracellular domain (human, UniProt P02786 89-760); assay: primary ELISA; signal on hCD71 over signal on HSA
T2 construct: also called hCD71; human CD71-ECD

[3] = target: T1, apical domain of human CD71; assay: primary ELISA of colonies, luminescence
[4] = target: T2, human CD71 extracellular domain; assay: primary ELISA of colonies, luminescence
[5] = target: T3, human CD71 extracellular domain (human, UniProt P02786 89-760); assay: primary ELISA, ratio of signal to HSA control
T3 construct: also called hCD71; human CD71-ECD

[6] = target: T4, apical domain of cynomolgus CD71 (cynomolgus, UniProt A0A2K5X958 189-383); assay: primary ELISA, ratio of signal to HSA control
T4 construct: domain: apical domain; also called Cyno apical domain

[7] = target: T3, human CD71 extracellular domain; assay: primary ELISA, luminescence
[8] = target: T4, apical domain of cynomolgus CD71; assay: primary ELISA, luminescence
[9] = target: human CD71 on cells (SKBR3; SW620-rLuc-KRAS) (human, UniProt P02786 1-760); assay: cell-based or functional assay
Chain of human CD71 on cells (SKBR3; SW620-rLuc-KRAS) (P02786 whole entry): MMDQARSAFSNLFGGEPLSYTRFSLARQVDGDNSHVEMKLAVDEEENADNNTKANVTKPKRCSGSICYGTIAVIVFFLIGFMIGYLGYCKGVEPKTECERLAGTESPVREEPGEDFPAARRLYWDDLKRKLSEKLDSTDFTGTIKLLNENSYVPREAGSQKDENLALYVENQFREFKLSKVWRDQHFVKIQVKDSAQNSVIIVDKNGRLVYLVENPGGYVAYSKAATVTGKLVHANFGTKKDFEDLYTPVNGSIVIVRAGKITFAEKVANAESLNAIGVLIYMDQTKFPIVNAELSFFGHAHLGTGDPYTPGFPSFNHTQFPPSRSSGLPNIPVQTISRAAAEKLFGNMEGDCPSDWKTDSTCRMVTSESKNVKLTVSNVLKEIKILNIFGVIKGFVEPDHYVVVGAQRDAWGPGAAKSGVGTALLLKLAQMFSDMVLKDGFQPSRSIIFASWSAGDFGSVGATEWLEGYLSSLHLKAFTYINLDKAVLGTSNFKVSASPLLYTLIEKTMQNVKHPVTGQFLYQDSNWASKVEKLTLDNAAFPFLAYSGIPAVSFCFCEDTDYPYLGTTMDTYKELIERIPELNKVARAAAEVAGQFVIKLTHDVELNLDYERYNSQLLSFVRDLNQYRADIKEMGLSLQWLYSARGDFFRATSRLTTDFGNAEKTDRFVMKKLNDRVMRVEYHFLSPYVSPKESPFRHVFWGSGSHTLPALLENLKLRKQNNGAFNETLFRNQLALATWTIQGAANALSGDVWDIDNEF

T1 sequence (P02786 189-383 limits assumed): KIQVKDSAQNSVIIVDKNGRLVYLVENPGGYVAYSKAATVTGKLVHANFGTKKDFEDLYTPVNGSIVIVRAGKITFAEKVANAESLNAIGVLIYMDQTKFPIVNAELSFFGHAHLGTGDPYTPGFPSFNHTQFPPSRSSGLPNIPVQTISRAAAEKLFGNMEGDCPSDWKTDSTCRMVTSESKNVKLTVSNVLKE
T4 sequence (A0A2K5X958 entry or part of it): as the sequence (P02786 189-383 limits assumed) above, with R20G, Y59D, T60S, N104K, E106D, R137Q, R176K, S182N, N184S counted along it

Row | Binder | Apical domain:HSA [1] | hCD71:HSA [2] | Apical domain, RLU [3] | hCD71, RLU [4] | LSA EC50 (luciferase reporter assay, SW620-rLuc-KRAS cells, 72 h) [9] | also measured
1 | B1 | 787 ratio | 897 ratio | 6.1e+06 RLU | 6.95e+06 RLU | – | –
2 | B2 | 1890 ratio | 1230 ratio | 4.81e+06 RLU | 3.13e+06 RLU | – | –
3 | B3 | 2200 ratio | 1470 ratio | 6.06e+06 RLU | 4.05e+06 RLU | – | –
4 | B4 | 1170 ratio | 200 ratio | 3.75e+06 RLU | 641000 RLU | – | –
5 | B5 | 291 ratio | 350 ratio | 5.3e+06 RLU | 6.37e+06 RLU | – | –
6 | B6 | 1720 ratio | 1140 ratio | 5.77e+06 RLU | 3.81e+06 RLU | – | –
7 | B7 | – | – | – | – | – | hCD71:HSA [5]: 191; Cyno apical domain:HSA [6]: 331; RLU [7]: 2.43e+06 RLU; RLU [8]: 4.22e+06 RLU
8 | B8 | – | – | – | – | – | hCD71:HSA [5]: 26; Cyno apical domain:HSA [6]: 47; RLU [7]: 2.25e+06 RLU; RLU [8]: 4.11e+06 RLU
9 | B9 | – | – | – | – | – | hCD71:HSA [5]: 388; Cyno apical domain:HSA [6]: 751; RLU [7]: 2.43e+06 RLU; RLU [8]: 4.69e+06 RLU
10 | B10 | – | – | – | – | 630 pM | –
11 | B11 | – | – | – | – | 480 pM | –
12 | B12 | – | – | – | – | 390 pM | –
13 | B13 | – | – | – | – | 540 pM | –
14 | B14 | – | – | – | – | 470 pM | –
15 | B15 | – | – | – | – | 450 pM | –
16 | B16 | – | – | – | – | 530 pM | –
17 | B17 | – | – | – | – | 490 pM | –

Row | Binder | Apical domain:HSA [1] | hCD71:HSA [2] | Apical domain, RLU [3] | hCD71, RLU [4] | LSA EC50 (luciferase reporter assay, SW620-rLuc-KRAS cells, 72 h) [9] | also measured
18 | B18 | – | – | – | – | 470 pM | –
19 | B19 | – | – | – | – | 640 pM | –
20 | B20 | – | – | – | – | 580 pM | –
21 | B21 | – | – | – | – | 570 pM | –
22 | B22 | – | – | – | – | 2100 pM | –
23 | B23 | – | – | – | – | 670 pM | –
24 | B24 | – | – | – | – | 750 pM | –
25 | B25 | 2120 ratio | 1640 ratio | 5.94e+06 RLU | 4.6e+06 RLU | – | –
26 | B26 | 1420 ratio | 1120 ratio | 5.33e+06 RLU | 4.21e+06 RLU | – | –
27 | B27 | 881 ratio | 999 ratio | 4.58e+06 RLU | 5.19e+06 RLU | – | –
28 | B28 | – | – | – | – | – | hCD71:HSA [5]: 66; Cyno apical domain:HSA [6]: 101; RLU [7]: 3.01e+06 RLU; RLU [8]: 4.58e+06 RLU
29 | B29 | 125 ratio | 78 ratio | 542000 RLU | 340000 RLU | – | –
30 | B30 | 1280 ratio | 503 ratio | 3.84e+06 RLU | 1.51e+06 RLU | – | –
31 | B31 | 2400 ratio | 2070 ratio | 6e+06 RLU | 5.17e+06 RLU | – | –
32 | B32 | 311 ratio | 130 ratio | 3.59e+06 RLU | 1.5e+06 RLU | – | –
33 | B33 | 1290 ratio | 68 ratio | 5.87e+06 RLU | 308000 RLU | – | –
